Experiments:
Experiment in all cases: capture ELISA on coated 1.14.4; relative to silent alanine substitutions
[1] = target: T1, hPD-L1_ECD.His point mutant V128A (human, UniProt Q9NZQ7 19-238)
T1 construct: extracellular domain
Procedure, shortened: (§1)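 Capture ELISA in which supernatant containing quantified PD-L1 alanine mutant was detected with HRP anti-His antibody. Absorbance was normalized to the average of control mutants. Epitope residues were called at binding fold change <0.55.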

[2] = target: T2, hPD-L1_ECD.His point mutant G120A (human, UniProt Q9NZQ7 19-238)
T2 construct: extracellular domain
Procedure, shortened: as §1

[3] = target: T3, hPD-L1_ECD.His point mutant K41A (human, UniProt Q9NZQ7 19-238)
T3 construct: extracellular domain
Procedure, shortened: as §1

[4] = target: T4, hPD-L1_ECD.His point mutant Y123A (human, UniProt Q9NZQ7 19-238)
T4 construct: extracellular domain
Procedure, shortened: as §1

[5] = target: T5, hPD-L1_ECD.His point mutant Y160A (human, UniProt Q9NZQ7 19-238)
T5 construct: extracellular domain
Procedure, shortened: as §1

[6] = target: T6, hPD-L1_ECD.His point mutant I38A (human, UniProt Q9NZQ7 19-238)
T6 construct: extracellular domain
Procedure, shortened: as §1

[7] = target: T7, hPD-L1_ECD.His point mutant L27A (human, UniProt Q9NZQ7 19-238)
T7 construct: extracellular domain
Procedure, shortened: as §1

[8] = target: T8, hPD-L1_ECD.His point mutant K129A (human, UniProt Q9NZQ7 19-238)
T8 construct: extracellular domain
Procedure, shortened: as §1

[9] = target: T9, hPD-L1_ECD.His point mutant G110A (human, UniProt Q9NZQ7 19-238)
T9 construct: extracellular domain
Procedure, shortened: as §1

[10] = target: T10, hPD-L1_ECD.His point mutant K46A (human, UniProt Q9NZQ7 19-238)
T10 construct: extracellular domain
Procedure, shortened: as §1

[11] = target: T11, hPD-L1_ECD.His point mutant L106A (human, UniProt Q9NZQ7 19-238)
T11 construct: extracellular domain
Procedure, shortened: as §1

[12] = target: T12, hPD-L1_ECD.His point mutant S80A (human, UniProt Q9NZQ7 19-238)
T12 construct: extracellular domain
Procedure, shortened: as §1

[13] = target: T13, hPD-L1_ECD.His point mutant V23A (human, UniProt Q9NZQ7 19-238)
T13 construct: extracellular domain
Procedure, shortened: as §1

[14] = target: T14, hPD-L1_ECD.His point mutant D61A (human, UniProt Q9NZQ7 19-238)
T14 construct: extracellular domain
Procedure, shortened: as §1

[15] = target: T15, hPD-L1_ECD.His point mutant S117A (human, UniProt Q9NZQ7 19-238)
T15 construct: extracellular domain
Procedure, shortened: as §1

[16] = target: T16, hPD-L1_ECD.His point mutant K62A (human, UniProt Q9NZQ7 19-238)
T16 construct: extracellular domain
Procedure, shortened: as §1

[17] = target: T17, hPD-L1_ECD.His point mutant I206A (human, UniProt Q9NZQ7 19-238)
T17 construct: extracellular domain
Procedure, shortened: as §1

[18] = target: T18, hPD-L1_ECD.His point mutant K189A (human, UniProt Q9NZQ7 19-238)
T18 construct: extracellular domain
Procedure, shortened: as §1

[19] = target: T19, hPD-L1_ECD.His point mutant Q91A (human, UniProt Q9NZQ7 19-238)
T19 construct: extracellular domain
Procedure, shortened: as §1

[20] = target: T20, hPD-L1_ECD.His point mutant E205A (human, UniProt Q9NZQ7 19-238)
T20 construct: extracellular domain
Procedure, shortened: as §1

[21] = target: T21, hPD-L1_ECD.His point mutant T127A (human, UniProt Q9NZQ7 19-238)
T21 construct: extracellular domain
Procedure, shortened: as §1

[22] = target: T22, hPD-L1_ECD.His point mutant M36A (human, UniProt Q9NZQ7 19-238)
T22 construct: extracellular domain
Procedure, shortened: as §1

[23] = target: T23, hPD-L1_ECD.His point mutant T203A (human, UniProt Q9NZQ7 19-238)
T23 construct: extracellular domain
Procedure, shortened: as §1

[24] = target: T24, hPD-L1_ECD.His point mutant G33A (human, UniProt Q9NZQ7 19-238)
T24 construct: extracellular domain
Procedure, shortened: as §1

[25] = target: T25, hPD-L1_ECD.His point mutant G70A (human, UniProt Q9NZQ7 19-238)
T25 construct: extracellular domain
Procedure, shortened: as §1

[26] = target: T26, hPD-L1_ECD.His point mutant T37A (human, UniProt Q9NZQ7 19-238)
T26 construct: extracellular domain
Procedure, shortened: as §1

T26 sequence (Q9NZQ7 19-238 T37A): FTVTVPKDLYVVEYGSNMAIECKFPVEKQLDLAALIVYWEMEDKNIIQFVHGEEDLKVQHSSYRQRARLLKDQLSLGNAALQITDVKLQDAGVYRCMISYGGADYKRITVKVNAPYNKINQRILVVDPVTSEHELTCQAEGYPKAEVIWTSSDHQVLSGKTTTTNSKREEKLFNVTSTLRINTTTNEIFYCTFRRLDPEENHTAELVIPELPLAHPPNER
T20 sequence (Q9NZQ7 19-238 E205A): as the sequence (Q9NZQ7 19-238 T37A) above, with A19T, E187A counted along it
T10 sequence (Q9NZQ7 19-238 K46A): as the sequence (Q9NZQ7 19-238 T37A) above, with A19T, K28A counted along it
T11 sequence (Q9NZQ7 19-238 L106A): as the sequence (Q9NZQ7 19-238 T37A) above, with A19T, L88A counted along it
T8 sequence (Q9NZQ7 19-238 K129A): as the sequence (Q9NZQ7 19-238 T37A) above, with A19T, K111A counted along it
T22 sequence (Q9NZQ7 19-238 M36A): as the sequence (Q9NZQ7 19-238 T37A) above, with M18A, A19T counted along it
T15 sequence (Q9NZQ7 19-238 S117A): as the sequence (Q9NZQ7 19-238 T37A) above, with A19T, S99A counted along it
T19 sequence (Q9NZQ7 19-238 Q91A): as the sequence (Q9NZQ7 19-238 T37A) above, with A19T, Q73A counted along it
T12 sequence (Q9NZQ7 19-238 S80A): as the sequence (Q9NZQ7 19-238 T37A) above, with A19T, S62A counted along it
T6 sequence (Q9NZQ7 19-238 I38A): as the sequence (Q9NZQ7 19-238 T37A) above, with A19T, I20A counted along it
T7 sequence (Q9NZQ7 19-238 L27A): as the sequence (Q9NZQ7 19-238 T37A) above, with L9A, A19T counted along it
T17 sequence (Q9NZQ7 19-238 I206A): as the sequence (Q9NZQ7 19-238 T37A) above, with A19T, I188A counted along it
T25 sequence (Q9NZQ7 19-238 G70A): as the sequence (Q9NZQ7 19-238 T37A) above, with A19T, G52A counted along it
T21 sequence (Q9NZQ7 19-238 T127A): as the sequence (Q9NZQ7 19-238 T37A) above, with A19T, T109A counted along it
T1 sequence (Q9NZQ7 19-238 V128A): as the sequence (Q9NZQ7 19-238 T37A) above, with A19T, V110A counted along it
T14 sequence (Q9NZQ7 19-238 D61A): as the sequence (Q9NZQ7 19-238 T37A) above, with A19T, D43A counted along it
T13 sequence (Q9NZQ7 19-238 V23A): as the sequence (Q9NZQ7 19-238 T37A) above, with V5A, A19T counted along it
T4 sequence (Q9NZQ7 19-238 Y123A): as the sequence (Q9NZQ7 19-238 T37A) above, with A19T, Y105A counted along it
T2 sequence (Q9NZQ7 19-238 G120A): as the sequence (Q9NZQ7 19-238 T37A) above, with A19T, G102A counted along it
T24 sequence (Q9NZQ7 19-238 G33A): as the sequence (Q9NZQ7 19-238 T37A) above, with G15A, A19T counted along it
T5 sequence (Q9NZQ7 19-238 Y160A): as the sequence (Q9NZQ7 19-238 T37A) above, with A19T, Y142A counted along it
T3 sequence (Q9NZQ7 19-238 K41A): as the sequence (Q9NZQ7 19-238 T37A) above, with A19T, K23A counted along it
T18 sequence (Q9NZQ7 19-238 K189A): as the sequence (Q9NZQ7 19-238 T37A) above, with A19T, K171A counted along it
T9 sequence (Q9NZQ7 19-238 G110A): as the sequence (Q9NZQ7 19-238 T37A) above, with A19T, G92A counted along it
T23 sequence (Q9NZQ7 19-238 T203A): as the sequence (Q9NZQ7 19-238 T37A) above, with A19T, T185A counted along it
T16 sequence (Q9NZQ7 19-238 K62A): as the sequence (Q9NZQ7 19-238 T37A) above, with A19T, K44A counted along it

B1: 1.14.4 (antibody, V domains shown)
VH: EVQLLESGGGLVQPGGSLRLSCAASGFTFSSYAMSWVRQAPGKGLEWVSGISGSGGFTYYADSVKGRFTISRDNSKNTLYLQMNSLRAEDTAVYYCAKPPRGYNYGPFDYWGQGTLVTVSS
VL: SYVLTQPPSVSVAPGQTARITCGGNNIGSKSVHWYQQKPGQAPVLVVYDDSDRPSGIPERFSGSNSGNTATLTISRVEAGDEADYYCQVWDSSSDHVVFGGGTKLTVL
notes: Fully human monoclonal antibody with a human constant region of IgG4 isotype
fold change [1]: 0.701 fold
fold change [2]: 0.895 fold
fold change [3]: 1.07 fold
fold change [4]: 1.11 fold
fold change [5]: 0.505 fold
fold change [6]: 1.13 fold
fold change [7]: 0.949 fold
fold change [8]: 0.586 fold
fold change [9]: 0.632 fold
fold change [10]: 1.08 fold
fold change [11]: 0.732 fold
fold change [12]: 0.974 fold
fold change [13]: 0.948 fold
fold change [14]: 0.372 fold
fold change [15]: 0.935 fold
fold change [16]: 0.169 fold
fold change [17]: 0.876 fold
fold change [18]: 0.759 fold
fold change [19]: 0.906 fold
fold change [20]: 0.801 fold
fold change [21]: 0.735 fold
fold change [22]: 1.04 fold
fold change [23]: 0.87 fold
fold change [24]: 0.807 fold
fold change [25]: 0.602 fold
fold change [26]: 0.569 fold
